# Values quoted from earlier work as cited in article PMC8174103.
# Target: EGFR (Homo sapiens) (UniProt P00533)
substance,measurement,value
EGF (from UniProt P01133),Kd,2 nM
